Experimental findings from patent US20220348609A1 (University of Washington, published 2022) are described below.

Experiment [1] has as its target T1, human αvβ6 integrin, soluble protein (biotinylated for yeast display; in solution for BLI) (human, UniProt P06756 31-992; P18564 22-707, limits assumed, biotinylated in the yeast display experiments (site not stated)).
T1 construct: also called avb6; alpha(v) beta (6) integrin
In words: BLI (Octet RED96), His-tagged binder on Ni-NTA sensor, αvβ6 in solution.

Experiment [2] has as its target T2, human αvβ6 integrin on cells (A431 carcinoma cells; K562 cells stably transfected with αvβ6) (human, UniProt P06756 31-1048; P18564 22-788).
T2 construct: whole, on cells; Endogenous on A431 cells, transfected on K562 cells; also called αvβ6(+) cells; K562 avb6 transfected clone A4
In words: row 'X(selectivity)' of the drawn table: αvβ6 over αvβ8, cell surface competition assay.

Experiment [3] addresses T1, human αvβ6 integrin, soluble protein …. As to the kind of experiment: BLI (Octet RED96), His-tagged binder on Ni-NTA sensor, αvβ6 in solution. On the procedure: Data was collected on an Octet™ RED96 (Forte Bio) and processed using the instrument's software. His Tagged protein binders were immobilized on Ni-NTA octet sensors. The tips are then dipped into wells containing different concentrations of αᵥβ₆. Association and dissociation steps were recorded for 900 s and 1200 s respectively. An empty sensor with no loaded binding protein was included to discard any non-specific binding of αᵥβ₆ to the octet tip.
The source holds these as a separate data set. For orientation: Biolayer interferometry detects binding as a change in optical thickness at a sensor tip.

The target in experiment [4] is T2, human αvβ6 integrin on cells (A431 …). As to the kind of experiment: flow cytometry titration of AF488-labelled binder on A431 cells, 5 hours at 4° C., one site-specific binding fit. From the text: We set out to test the ability of these binders to bind to αᵥβ₆(+) cells and block TGF-β mediated downstream signaling. We generated fluorescently labelled BP1 and BP2 by conjugating Alexafluor-488 to an engineered C-term cysteine via maleimide chemistry. The fluorescently labelled proteins were titrated against αᵥβ₆ positive human epidermoid carcinoma A431 cells.
Epidermoid cancer cells (A431) and human embryonic kidney 293T cells (HEK 293T) were purchased from American Type Culture Collection (ATCC) and grown in Dulbecco's Modified Eagle Medium (DMEM, Gibco) supplemented with 10% fetal bovine serum (FBS, Gibco) in a humidified atmosphere with 5% CO2 at 37° C. Binding assays were performed on A431 carcinoma cells. A431 cells were dissociated from culture flasks with enzyme-free cell dissociation buffer (Gibco). Varying concentrations of AG-AF488 and E13T-AF488 were incubated with 5×10^4 A431 cells in 1×TBS with 0.1% BSA, 1 mM Ca2+, and 1 mM Mg2+ (BTBS) rotating in suspension for 5 hours at 4° C. Sufficient incubation volumes were used to avoid >5% ligand depletion. After incubation, cells were washed with BTBS and analyzed by flow cytometry on an Accuri™ C6 instrument (BD Biosciences), and data were quantified using FlowJo™ software (TreeStar). Kd values were determined by fitting the data to a one site—specific binding curve using Prism™ 7 (GraphPad Software).
For orientation: Flow cytometry measures light scatter and fluorescence of single cells or particles in a stream.

Experiment [5] has as its target T1, human αvβ6 integrin, soluble protein …. In words: yeast surface display, flow cytometry, 50 pM biotinylated αvβ6 stained with SAPE. From the text: Yeast Display: Standard yeast surface display techniques were used to screen designs for binding and directed evolution. Genes encoding the designs were cloned into petcon2 in frame with N-term aga2 and C-term myc tag. Surface expression of Myc was detected using Anti-C Myc antibody and binding was detected by using biotinylated human αᵥβ₆ and stained with phycoerythrin conjugated streptavidin for FACS. Two different buffers were used for the binding and washing steps for yeast display: Binding Buffer 20 mM TRIS, 150 mM NaCl, pH=8.0, 1% BSA, 1 mM Ca(II) and 1 mM Mg(II), Wash Buffer: 20 mM TRIS, 150 mM NaCl, pH=8.0, 0.5% BSA, 1 mM Ca(II) and 1 mM Mg(II).

T2 sequence (P06756 31-1048, chain 1 of 2): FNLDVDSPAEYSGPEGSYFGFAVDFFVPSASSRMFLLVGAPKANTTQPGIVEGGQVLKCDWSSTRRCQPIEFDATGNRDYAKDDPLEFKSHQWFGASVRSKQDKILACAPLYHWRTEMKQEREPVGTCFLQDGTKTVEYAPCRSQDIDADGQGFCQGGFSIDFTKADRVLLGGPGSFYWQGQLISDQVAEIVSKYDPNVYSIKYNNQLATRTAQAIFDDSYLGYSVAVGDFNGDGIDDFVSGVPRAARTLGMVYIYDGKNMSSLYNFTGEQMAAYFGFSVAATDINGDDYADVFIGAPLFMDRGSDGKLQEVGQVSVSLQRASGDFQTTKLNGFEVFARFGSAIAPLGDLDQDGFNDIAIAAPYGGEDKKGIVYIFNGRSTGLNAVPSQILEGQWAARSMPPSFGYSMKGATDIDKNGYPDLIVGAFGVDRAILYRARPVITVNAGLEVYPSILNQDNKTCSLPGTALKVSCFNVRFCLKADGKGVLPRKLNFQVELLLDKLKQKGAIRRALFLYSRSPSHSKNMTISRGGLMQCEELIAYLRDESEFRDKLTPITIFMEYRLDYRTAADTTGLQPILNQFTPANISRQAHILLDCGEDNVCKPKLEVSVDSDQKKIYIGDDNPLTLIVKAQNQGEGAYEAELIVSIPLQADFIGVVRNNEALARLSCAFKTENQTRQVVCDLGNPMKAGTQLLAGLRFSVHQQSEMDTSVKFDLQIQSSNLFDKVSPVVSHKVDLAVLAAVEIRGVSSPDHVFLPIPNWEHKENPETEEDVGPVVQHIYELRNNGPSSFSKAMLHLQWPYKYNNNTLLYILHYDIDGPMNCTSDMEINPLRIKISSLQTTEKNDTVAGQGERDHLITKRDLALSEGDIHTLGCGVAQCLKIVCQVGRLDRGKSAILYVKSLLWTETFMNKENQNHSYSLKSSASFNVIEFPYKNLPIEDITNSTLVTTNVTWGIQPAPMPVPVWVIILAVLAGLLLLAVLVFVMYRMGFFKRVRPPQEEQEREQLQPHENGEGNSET
T2 sequence (P18564 22-788, chain 2 of 2): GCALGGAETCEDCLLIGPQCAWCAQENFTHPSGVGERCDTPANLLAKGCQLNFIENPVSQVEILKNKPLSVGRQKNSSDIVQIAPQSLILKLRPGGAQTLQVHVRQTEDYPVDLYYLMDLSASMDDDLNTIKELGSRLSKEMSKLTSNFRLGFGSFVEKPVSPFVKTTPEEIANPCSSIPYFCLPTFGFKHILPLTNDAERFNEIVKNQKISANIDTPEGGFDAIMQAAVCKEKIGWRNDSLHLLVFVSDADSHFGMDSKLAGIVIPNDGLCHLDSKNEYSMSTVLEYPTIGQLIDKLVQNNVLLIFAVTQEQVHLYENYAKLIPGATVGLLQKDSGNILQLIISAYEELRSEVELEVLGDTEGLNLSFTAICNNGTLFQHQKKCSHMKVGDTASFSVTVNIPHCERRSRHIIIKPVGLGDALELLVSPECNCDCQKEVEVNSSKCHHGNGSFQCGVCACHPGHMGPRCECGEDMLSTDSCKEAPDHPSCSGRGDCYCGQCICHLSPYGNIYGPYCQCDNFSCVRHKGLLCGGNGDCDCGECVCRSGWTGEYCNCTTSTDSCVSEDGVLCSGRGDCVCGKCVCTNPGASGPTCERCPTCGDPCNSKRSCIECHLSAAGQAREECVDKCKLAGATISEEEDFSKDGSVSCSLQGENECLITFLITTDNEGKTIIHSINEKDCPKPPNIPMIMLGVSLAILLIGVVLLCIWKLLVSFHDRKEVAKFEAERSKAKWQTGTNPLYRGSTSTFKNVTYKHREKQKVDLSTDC
T1 sequence (P06756 31-992 limits assumed, chain 1 of 2): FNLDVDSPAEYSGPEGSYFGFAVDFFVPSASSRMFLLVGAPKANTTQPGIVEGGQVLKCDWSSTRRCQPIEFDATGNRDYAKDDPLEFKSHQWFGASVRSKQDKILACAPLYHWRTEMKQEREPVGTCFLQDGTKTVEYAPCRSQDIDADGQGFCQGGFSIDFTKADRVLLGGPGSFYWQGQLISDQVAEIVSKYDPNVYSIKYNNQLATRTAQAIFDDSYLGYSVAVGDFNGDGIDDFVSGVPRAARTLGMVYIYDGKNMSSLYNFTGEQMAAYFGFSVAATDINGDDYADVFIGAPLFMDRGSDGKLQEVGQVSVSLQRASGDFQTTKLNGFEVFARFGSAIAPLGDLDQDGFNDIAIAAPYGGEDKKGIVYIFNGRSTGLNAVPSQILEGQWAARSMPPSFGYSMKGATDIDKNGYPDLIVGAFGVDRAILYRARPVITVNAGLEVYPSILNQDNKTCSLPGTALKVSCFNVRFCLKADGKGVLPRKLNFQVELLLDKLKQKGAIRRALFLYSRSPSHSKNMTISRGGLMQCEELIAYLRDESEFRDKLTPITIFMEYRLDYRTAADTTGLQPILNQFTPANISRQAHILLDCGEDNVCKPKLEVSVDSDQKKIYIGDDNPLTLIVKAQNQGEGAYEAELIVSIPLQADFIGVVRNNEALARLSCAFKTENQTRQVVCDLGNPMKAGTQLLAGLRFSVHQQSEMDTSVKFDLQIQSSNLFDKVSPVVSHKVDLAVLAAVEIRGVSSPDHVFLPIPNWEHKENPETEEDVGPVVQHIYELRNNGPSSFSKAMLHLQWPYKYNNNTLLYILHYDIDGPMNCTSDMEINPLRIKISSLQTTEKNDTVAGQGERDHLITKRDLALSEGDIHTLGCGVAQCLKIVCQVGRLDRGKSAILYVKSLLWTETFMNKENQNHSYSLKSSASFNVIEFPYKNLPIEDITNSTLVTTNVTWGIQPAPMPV
T1 sequence (P18564 22-707 limits assumed, chain 2 of 2): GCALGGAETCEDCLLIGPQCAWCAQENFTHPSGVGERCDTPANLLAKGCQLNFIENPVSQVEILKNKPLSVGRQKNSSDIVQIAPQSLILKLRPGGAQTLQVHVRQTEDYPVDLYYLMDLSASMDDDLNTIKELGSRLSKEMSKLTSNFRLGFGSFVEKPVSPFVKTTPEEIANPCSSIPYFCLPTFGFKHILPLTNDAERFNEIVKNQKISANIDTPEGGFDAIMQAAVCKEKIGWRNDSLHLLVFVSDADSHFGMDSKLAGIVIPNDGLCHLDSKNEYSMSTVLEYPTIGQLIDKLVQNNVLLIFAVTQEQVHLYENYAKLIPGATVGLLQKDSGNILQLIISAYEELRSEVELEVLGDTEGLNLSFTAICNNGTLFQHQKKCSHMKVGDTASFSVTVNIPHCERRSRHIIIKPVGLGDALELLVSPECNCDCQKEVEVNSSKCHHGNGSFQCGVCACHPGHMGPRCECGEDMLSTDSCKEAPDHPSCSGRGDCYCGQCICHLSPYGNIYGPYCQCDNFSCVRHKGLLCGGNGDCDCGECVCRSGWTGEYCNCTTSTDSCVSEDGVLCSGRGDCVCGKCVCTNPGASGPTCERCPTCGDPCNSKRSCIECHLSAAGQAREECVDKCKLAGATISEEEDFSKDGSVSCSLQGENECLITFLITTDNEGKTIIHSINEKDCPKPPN

B1: av6_3 (designed binder)
chain: MAVVRFVFRGDLAELMLRAVKDHLKKEGPHWNITSTNNGAELVVRGIHESDAKRIAKWVEKRFPGVHTETQQD
notes: the purified protein (BLI, cell assays) carries a C-terminal His tag; also called αv6_3; original unevolved av6_3; not shown: C-terminal His tag of the purified protein (pET29b, NdeI/XhoI)
As to B1, in experiment [1], the “apparent Kd (pooled screen)” value stood at 1180 pM. Moreover, the “X(selectivity)” value in experiment [2] is 14 X.

B2: av6_3 E13TM15RA39KG64R (designed binder)
chain: MAVVRFVFRGDLATLRLRAVKDHLKKEGPHWNITSTNNGKELVVRGIHESDAKRIAKWVEKRFPRVHTETQQD
notes: not shown: C-terminal His tag (pET29b, NdeI/XhoI)
On to B2, for which the Kd in experiment [3] worked out at 420 pM.

B3: av6_3 G64R (designed binder)
chain: MAVVRFVFRGDLAELMLRAVKDHLKKEGPHWNITSTNNGAELVVRGIHESDAKRIAKWVEKRFPRVHTETQQD
notes: as for B2
As to B3, the Kd in experiment [3] was 470 pM.

B4: av6_3 E13TG64R (designed binder)
chain: MAVVRFVFRGDLATLMLRAVKDHLKKEGPHWNITSTNNGAELVVRGIHESDAKRIAKWVEKRFPRVHTETQQD
notes: as for B2
With B4, in experiment [3], the affinity, expressed as Kd, was 398 pM.

B5: av6_3 A39K (designed binder)
chain: MAVVRFVFRGDLAELMLRAVKDHLKKEGPHWNITSTNNGKELVVRGIHESDAKRIAKWVEKRFPGVHTETQQD
notes: as for B2
Molecule B5 came in with a Kd in experiment [3] of 411 pM.

B6: BP2 labelled with Alexa Fluor 488 on an engineered C-terminal cysteine (designed binder)
chain: MAVVRFVFRGDLAELMLRAVKDHLKKEGPHWNITSTNNGKELVVRGIHESDAKRIAKWVEKRFPRVHTETQQD
modifications: Alexa Fluor 488 C5 maleimide on the engineered C-terminal cysteine
notes: also called AG-AF488; fluorescently labelled BP2; not shown: engineered C-terminal cysteine and any tag
As to B6, binding in experiment [4] was put at a Kd of 30 pM.

B7: av6_3 M15RG64R (designed binder)
chain: MAVVRFVFRGDLAELRLRAVKDHLKKEGPHWNITSTNNGAELVVRGIHESDAKRIAKWVEKRFPRVHTETQQD
notes: as for B2
In the case of B7, the Kd in experiment [3] was determined as 404 pM. That is a sub-nanomolar value.

B8: BP1 labelled with Alexa Fluor 488 on an engineered C-terminal cysteine (designed binder)
chain: MAVVRFVFRGDLATLMLRAVKDHLKKEGPHWNITSTNNGAELVVRGIHESDAKRIAKWVEKRFPGVHTETQQD
modifications: Alexa Fluor 488 C5 maleimide on the engineered C-terminal cysteine
notes: also called E13T-AF488; fluorescently labelled BP1; not shown: engineered C-terminal cysteine and any tag
As for B8, binding in experiment [4] was put at a Kd of 167 pM.

B9: av6_3 M15R (designed binder)
chain: MAVVRFVFRGDLAELRLRAVKDHLKKEGPHWNITSTNNGAELVVRGIHESDAKRIAKWVEKRFPGVHTETQQD
notes: as for B2
The molecule B9 gave a Kd in experiment [3] of 380 pM.

B10: av6_7 (designed binder)
chain: MAVVRFVFRGDLAELMLRAVKDHLKKEGPHWNITSDESGFELVVRGIHESDAKRIAKWVEKRFPGVHTETQQD
notes: Yeast display: Aga2 fusion with C-terminal myc tag; also purified from E. coli with C-terminal His tag
Turning to B10, the “X(selectivity)” value in experiment [2] was found to be 1.5 X.

B11: av6_3 E13TM15RA39K (designed binder)
chain: MAVVRFVFRGDLATLRLRAVKDHLKKEGPHWNITSTNNGKELVVRGIHESDAKRIAKWVEKRFPGVHTETQQD
notes: as for B2
For the molecule B11, the Kd in experiment [3] is 397 pM.

B12: evolved variant from the first round of design (02_E2V_T12A_E40V_S44I_T63I) (designed binder)
chain: AVVRFVFRGDLAELMLRAVKDHLKKEGPHWNITSRGNELVVRGIHESDAKRIQKEFPSVQSTIQA
notes: No substitutions were applied here; also called original crystallized variant
As for B12, the “X(selectivity)” value in experiment [2] was 3 X.

B13: av6_12 (designed binder)
single chain: MAVVRFVFRGDLAELMLRAVKDHLKKEGPHWNITSDTSKGAELVVRGIHESDAKRIAKWARLKFPGTDTRIEV
With B13, the binding result in experiment [5] was “binds”.

B14: av6_16 (designed binder)
single chain: MAVVRFVFRGDLAELMLRAVKDHLKKEGPHWNITSVESSQVELVVRGIHESDAKRIAKWARLKFPGTDTRIEV
Regarding B14, the binding result in experiment [5] is on record as “binds”.

B15: av6_1 (designed binder)
single chain: MAVVRFVFRGDLAELMLRAVKDHLKKEGPHWNITSTNNGAELVVRGIHESDAKRIARTVEKLTNGKSQSLVLT
For B15, the binding result in experiment [5] is on record as “binds”.

B16: av6_5 (designed binder)
single chain: MAVVRFVFRGDLAELMLRAVKDHLKKEGPHWNITSDESGFELVVRGIHESDAKRIARTVEKLTNGKSQSLVLT
Turning to B16, the binding result in experiment [5] is reported as “binds”.

B17: av6_11 (designed binder)
chain: MAVVRFVFRGDLAELMLRAVKDHLKKEGPHWNITSDTSKGAELVVRGIHESDAKRIAKWVEKRFPGVHTETQQ
notes: as for B10
Regarding B17, in experiment [2], the “X(selectivity)” value was 8 X.

B18: av6_15 (designed binder)
chain: MAVVRFVFRGDLAELMLRAVKDHLKKEGPHWNITSVESSQVELVVRGIHESDAKRIAKWVEKRFPGVHTETQQ
notes: as for B10
Take B18: the “X(selectivity)” value in experiment [2] is 6 X.

B19: av6_4 (designed binder)
single chain: MAVVRFVFRGDLAELMLRAVKDHLKKEGPHWNITSTNNGAELVVRGIHESDAKRIAKWARLKFPGTDTRIEVR
As for B19, the binding result in experiment [5] is on record as “binds”.

B20: av6_8 (designed binder)
single chain: MAVVRFVFRGDLAELMLRAVKDHLKKEGPHWNITSDESGFELVVRGIHESDAKRIAKWARLKFPGTDTRIEVR
On to B20, for which the binding result in experiment [5] is on record as “binds”.

B21: av6_9 (designed binder)
chain: MAVVRFVFRGDLAELMLRAVKDHLKKEGPHWNITSDTSKGAELVVRGIHESDAKRIARTVEKLTNGKSQSLVL
notes: as for B10
With B21, the “X(selectivity)” value in experiment [2] was 3 X.

B22: av6_13 (designed binder)
single chain: MAVVRFVFRGDLAELMLRAVKDHLKKEGPHWNITSVESSQVELVVRGIHESDAKRIARTVEKLTNGKSQSLVL
For B22, the binding result in experiment [5] is reported as “binds”.

What is called Kd is the free concentration of one partner at which half of the binding sites on the other are occupied at equilibrium, for simple one-to-one binding. Higher therefore signals lower affinity.
